Assay results published in patent US8012929B2, “Peptides directed for diagnosis and treatment of amyloid-associated diseases” (Tel Aviv University Future Technology Development L.P., priority 2002, dated 2011).
“Also recorded” adds a separate entry of the source. Values belong to the substance of their own block, whether it stands above or below them. Square brackets hold non-standard residues; d marks the D form. Ends that are not written are not given here. Aib = CC(C)(N)C(=O)O

Experiments:
[1] = FT-IR of Aib-modified IAPP peptide fragments; format: physicochemical; settings: two week aged peptide solutions
Description: Fourier Transform Infrared Spectroscopy—Infrared spectra were recorded using a Nicolet Nexus 470 FT-IR spectrometer with a DTGS detector. Samples of two week aged peptide solutions, were suspended on a CaF2 plate and dried by vacuum. The peptide deposits were resuspended with D2O and subsequently dried to form thin films. The resuspension procedure was repeated twice to ensure maximal hydrogen to deuterium exchange. The measurements were taken using a 4 cm^−1 resolution and 2000 scans averaging. The transmittance minima values were determined by the OMNIC analysis program (Nicolet).

[2] = Transmission electron microscopy of wild-type and Aib modified hIAPP peptides; format: physicochemical; settings: 5 mM peptide, aged 4 days (wt) or 10 days (modified)
Description: Peptide solutions—freshly prepared stock solutions were prepared by dissolving the lyophilized form of the peptides in dimethyl sulfoxide (DMSO) at a concentration of 100 mM. To avoid any pre-aggregation, fresh stock solutions were prepared for each experiment. […] Transmission Electron Microscopy—a 10 μL sample of 5 mM peptide solution in 10 mM Tris buffer, pH 7.2 aged for 4 days (for wt peptides) and for 10 days (for modified peptides) was placed on 400-mesh copper grids (SPI supplies, West Chester Pa.) covered by carbon-stabilized Formvar film. After 1 minute, excess fluid was removed, and the grid was then negatively stained with 2% uranyl acetate in water for another 2 minutes. Samples were viewed in a JEOL 1200EX electron microscope operating at 80 kV.

[3] = Congo Red staining and birefringence of wild-type and Aib substituted IAPP peptides; format: physicochemical; settings: 5 mM peptide aged for 10 days
Description: Congo Red Staining and Birefringence—A 10 μL suspension of 5 mM peptide solution in 10 mM Tris buffer, pH 7.2 aged for 10 days was allowed to dry overnight on a glass microscope slide. Staining was performed by the addition of a 10 μL suspension of saturated Congo Red (CR) and NaCl in 80% ethanol (v/v) solution. The solution was filtered via 0.2 μm filter. The slide was then dried for a few hours. Birefringence was determined with a SZX-12 Stereoscope (Olympus, Hamburg, Germany) equipped with cross polarizers. 100× magnification is shown.

hIAPP1-37 = target: T1, hIAPP1-37 (Homo sapiens, UniProt P10997); assay: Thioflavin T fluorescence assay of hIAPP fibrillization (sodium acetate buffer); format: biochemical; settings: 4 μM hIAPP1-37, 40 μM inhibitor, 10 mM sodium acetate pH 6.5
T1 construct: purchased CalBiochem (La Jolla Calif., USA)
T1 sequence (P10997 34-70 limits assumed): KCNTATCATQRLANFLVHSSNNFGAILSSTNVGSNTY
Description: Thioflavin T fluorescence assay—hIAPP fibrillization was monitored by Thioflavin T dye binding assay. hIAPP1-37 stock solution was diluted to a final concentration of 4 μM in 10 mM sodium acetate buffer (pH 6.5) with or without inhibitors (40 μM), and a final concentration of HFIP of 1% (vol). Immediately after dilution, sample was centrifuged for 20 minutes in 20,000×g at 4° C. and the supernatant fraction was used for fluorescence measurements. In every measurement ThT was added to a 1 ml sample at a final concentration of 3 μM and measurements were effected by using Perkin-Elmer (excitation 450 nm, 2.5 nm slit; emission 480 nm 10 nm slit). Background was subtracted from all samples.

[4] = Congo red binding assay with polarization microscopy (Example 4); format: physicochemical; settings: peptide solutions incubated for four days
Description: Congo red (CR) staining combined with polarization microscopy was utilized to test amyloidogenicity of the peptides of the present invention. […] Invest. 31:232-8; Lansbury (1992) Biochemistry 31:6865-70]. […] Staining was effected by the addition of 1 mM CR in 10 mM Tris buffer pH 7.2 followed by a 1 minute incubation. To remove excess CR, slides were rinsed with double-distilled water and dried. Saturated CR solutions solubilized in 80% ethanol (v/v) were used for poorly aggregating peptides. In such cases, staining was effected without rinsing. Birefringence was determined using a WILD Makroskop m420 (×70) equipped with a polarizing stage.

[5] = Kinetic aggregation assay (turbidity at 405 nm) of IAPP peptide fragment and alanine mutants; format: physicochemical; settings: 2 mM peptide, 10 mM Tris pH 7.2, 2% DMSO, room temperature
Description: To study self-assembly of the IAPP peptide derived fragments, aggregation and insolubilization kinetics were monitored using turbidity measurements at 405 nm.
Kinetic aggregation assay—Fresh peptide stock solutions were prepared by dissolving lyophilized form of the peptides in DMSO, a disaggregating solvent, at a concentration of 100 mM. To avoid any pre-aggregation, fresh stock solutions were prepared prior to each and every experiment. Peptide stock solutions were diluted into assay buffer and plated in 96-well plates as follows: 2 μl of peptides stock solutions were added to 98 μl of 10 mM Tris pH 7.2, resulting in a 2 mM final concentration of the peptide in the presence of 2% DMSO. Turbidity data was measured at 405 nm. A buffer solution including 2% DMSO was used as a blank. Turbidity was measured at room temperature over several time points.

[6] = Negative staining electron microscopy of fibril formation (Example 5); format: physicochemical; settings: 2 mM peptide incubated overnight
Description: Method—Peptide solutions (2 mM peptide in 10 mM Tris buffer pH 7.2), were incubated overnight at room temperature. Fibrils formation was assessed using 10 μl sample placed on 200-mesh copper grids, covered with carbon-stabilized formvar film (SPI Supplies, West Chester Pa.). Following 20-30 seconds of incubation, excess fluid was removed and the grids were negatively stained with 2% uranyl acetate in water. Samples were viewed in a JEOL 1200EX electron microscope operating at 80 kV.

[7] = Aggregate mean particle size by dynamic light scattering; format: physicochemical; settings: 100 μM peptide, 1% DMSO, 10 mM Tris pH 7.2
Description: Therefore, the average size of the aggregates, formed by the various peptides, was determined using dynamic light scattering (DLS) experiments.
Method—Freshly prepared peptide stock solutions at a concentration of 10 mM were diluted in 10 mM Tris buffer pH 7.2 and further filtrated through a 0.2 μm filter to a final concentration of 100 μM peptide and 1% DMSO. Particle size measurement was conducted with a laser-powered ALV-NIBS/HPPS non-invasive backscattering instrument. Autocorrelation data was fitted using the ALV-NIBS/HPPS software to derive average apparent hydrodynamic diameters.

[8] = Kinetic aggregation assay, turbidity at 405 nm (Example 8); format: physicochemical; settings: hIAPP 22-29 analogues incubated for 1 week
MBP-IAPP1-37 = target: T2, MBP-IAPP1-37 (Homo sapiens, UniProt P10997); assay: Binding of MBP-IAPP to membrane-spotted peptide arrays; settings: membrane-bound hIAPP decamers, 10 μg/ml MBP-IAPP1-37, densitometry, semiquantitative
T2 construct: incubated in the presence of 10 μg/ml MBP-IAPP1-37 at 4° C. for 12 h; made in house; host or cells: E. coli BL21(DE3)
T2 sequence (P10997 34-70 limits assumed): T1 sequence (P10997 34-70 limits assumed)
From the text: IAPP peptide array construction—Decamers corresponding to consecutive overlapping sequences of hIAPP1-37 SEQ ID NOs. 61-88) were synthesizes on a cellulose membrane matrix using the SPOT technique (Jerini AG, Berlin, Germany). The peptides were covalently bound to a Whatman 50 cellulose support (Whatman, Maidstone, England) via the C-terminal amino-acids. N-terminal acetylation was used for peptide scanning because of higher stability to peptide degradation, and better representation of the native recognition motif.
Thereafter, cellulose membrane was incubated in the presence of 10 μg/ml MBP-IAPP1-37 at 4° C. for 12 h in the same blocking buffer. The cellulose membrane was then washed repeatedly with 0.05% Tween 20 in TBS. […] HRP-conjugated goat anti mouse antibodies (Jackson Laboratories, USA) were used as a secondary antibody. Immunoblots were developed using the Renaissance western blot Chemiluminescence Reagent (NEN, USA) according to Manufacturer's instructions and signal was quantified using densitometry. Regeneration of the cellulose membrane for reuse was carried out by sequential washing with Regeneration buffer I including 62.5 mM Tris, 2% SDS, 100 Mm 2-mercaptoethanol, pH 6.7, and Regeneration buffer II including 8 M urea, 1% SDS, 0.1% 2-mercaptoethanol. Efficiency of the washing steps was monitored by contacting the membrane with the chemiluminescence reagent, as described.
To determine the specific role of the phenylalanine residue in IAPP-self assembly, a membrane-based binding assay was preformed in order to systematically explore the molecular determinants that facilitate the ability of the full-length hIAPP to recognize the “basic amyloidogenic unit”. To this end, the ability of MBP-IAPP (see Example 6) to interact with an array of peptides in which the phenylalanine position was systematically altered (SEQ ID NOs. 91-110), was addressed.

Substance: ANFLV
secondary structure by FT-IR [1]: typical of β-sheet spectra | structures by electron microscopy [2]: formed fibrillar structures | Congo Red birefringence [3]: typical yellow-green birefringence

Substance: ANFLVH
secondary structure by FT-IR [1]: typical of β-sheet spectra | structures by electron microscopy [2]: formed fibrillar structures | Congo Red birefringence [3]: typical yellow-green birefringence

Substance: Aib-NF-Aib-V ([Aib]NF[Aib]V)
secondary structure by FT-IR [1]: characteristic to a random coil conformation | structures by electron microscopy [2]: no fibrillar structures were evident | Congo Red birefringence [3]: no birefringence

Substance: Aib-NF-Aib-VH ([Aib]NF[Aib]VH)
secondary structure by FT-IR [1]: characteristic to a random coil conformation | structures by electron microscopy [2]: no fibrillar structures were evident | Congo Red birefringence [3]: no birefringence

inhibition of IAPP fibrillization (ThT fluorescence at plateau) (hIAPP1-37): inhibition potential
Substance: D-Phe-D-Pro [EG29]

inhibition of IAPP fibrillization (ThT fluorescence at plateau) (hIAPP1-37): inhibition potential
Substance: D-Pro-Aib [EG28]

Substance: Gln-Lys-Leu-Val-Phe-Phe [EG05, reference compound]
inhibition of IAPP fibrillization (ThT fluorescence at plateau) (hIAPP1-37): effective inhibition of IAPP fibrillization

Substance: I5A: isoleucine to alanine mutant of the hIAPP peptide fragment, SEQ ID NO: 5 (NFGAALSS)
Congo red binding and birefringence [4]: bound CR and exhibited rare but characteristic birefringence | kinetics of aggregation (turbidity at 405 nm) [5]: reduced the kinetics of aggregation but did not abolish it completely | fibril structures by electron microscopy [6]: lower in comparison to that of wild type; also recorded: More distinct structures and longer fibrils, albeit less frequent | apparent hydrodynamic diameter of the structures formed [7]: Smaller structures

Substance: L6A: leucine to alanine mutant of the hIAPP peptide fragment, SEQ ID NO: 6 (NFGAIASS)
Congo red binding and birefringence [4]: bound CR and exhibited rare but characteristic birefringence | kinetics of aggregation (turbidity at 405 nm) [5]: reduced the kinetics of aggregation but did not abolish it completely | fibril structures by electron microscopy [6]: lower in comparison to that of wild type; also recorded: More distinct structures and longer fibrils, albeit less frequent | apparent hydrodynamic diameter of the structures formed [7]: Smaller structures

Substance: N1A: alanine-scan mutant of the hIAPP peptide fragment, SEQ ID NO: 2 (AFGAILSS)
Congo red binding and birefringence [4]: bound CR and exhibited the characteristic green/gold birefringence | kinetics of aggregation (turbidity at 405 nm) [5]: higher kinetics of aggregation | fibril structures by electron microscopy [6]: tangled net-like structures | apparent hydrodynamic diameter of the structures formed [7]: Smaller structures

Substance: NAGAILSS
endpoint turbidity [8]: lower extent

Substance: NIGAILSS
endpoint turbidity [8]: some low degree of turbidity

Substance: NLGAILSS
endpoint turbidity [8]: lower extent

Substance: NVGAILSS
endpoint turbidity [8]: lower extent

binding to MBP-hIAPP1-37 (MBP-IAPP1-37): no binding
Substance: hIAPP1-10: membrane-spotted decamer of hIAPP residues 1-10 (KCNTATCATQ)

binding to MBP-hIAPP1-37 (MBP-IAPP1-37): third binding spot
Substance: hIAPP2-11: membrane-spotted decamer of hIAPP residues 2-11 (CNTATCATQR)

binding to MBP-hIAPP1-37 (MBP-IAPP1-37): no binding
Substance: hIAPP3-12: membrane-spotted decamer of hIAPP residues 3-12 (NTATCATQRL)
